These are literature values, as cited in article PMC9101112.

As usually defined, the Ki is a dissociation constant, usually derived from enzyme kinetics or from competition with a known ligand.

Some targets named below: Ile-Val-Tyr-Pro-Trp; Trp-Val-Tyr-Pro-Trp; tynorphin; spinorphin (Bos taurus); valorphin (Bos taurus).
What all share (assay): enzyme inhibition

In the case of DPP III (from UniProt O55096), the Ki with Ile-Val-Tyr-Pro-Trp was 100 nM; in the data set with Trp-Val-Tyr-Pro-Trp, 126 nM; in the data set with tynorphin, 2670 nM.
Consider DPP III (from UniProt Q9NY33), for which the results for the Ki with spinorphin (Bos taurus) and in the data set with valorphin (Bos taurus) were 2420 nM and 49 nM, respectively.
